This is an account of results in article PMC4456219.

In assay [1] the target is MBP-Vps24-2-ssrA (Saccharomyces cerevisiae) (UniProt P36095).
Assay [2] has as its target mixed Vps4 hexamer of full-length Vps4^CF and Vps4^(CF 206C ΔMIT) (Saccharomyces cerevisiae) (UniProt P52917). The assay can be described thus: cross-linking.

Molecule “ClpX (from UniProt P0A6H1 1-424) (enzyme)” yielded an HDX-MS: unfolded proportion of the MBP peptide 347-360 at 10, 30 and 60 s in assay [1] of 30%.

B1: Vps24-2^92C (I92C single cysteine mutant of Vps24-2) (protein)
chain: MDYIKKAIWGPDPKEQQRRIRSVLRKNGRNIEKSLRELTVLQNKTQQLIKKSAKKNDVRTVRLYAKELYQINKQYDRMYTSRAQLDSVRMKCDEAIRMNTLSNQMADSAGLMREVNSLVRLPQLRNTMIELEKELMKSGIISEMVDDTMESVGDVGEEMDEAVDEEVNKIVEQYTNEKFSQLQSTPQNLVSNAPIAETAMGIPEPIGAGSEFHGNPDDDLQARLNTLKKQT
modifications: Cys92 activated as a mixed disulfide with DTNB
In turn, B1 came in with a cross-linking efficiency relative to Vps24-2^136C in assay [2] of 60%.
